{
  "source": "patent US20170000849A1",
  "about": "“CD300A RECEPTORS AS VIRUS ENTRY COFACTORS” (INSTITUT NATIONAL DE LA SANTE ET DE LA RECHERCHE MEDICALE …, priority 2013, published 2017)",
  "biological_target": "human CD300a expressed on Hek293T cells (HekCD300a) (human)",
  "experiment": "cell-based or functional assay",
  "data": [
    {"substance": "goat polyclonal antibody to CD300a (AF2640)", "values": [
      {"measurement": "inhibition of DV2 JAM infection of HekCD300a cells (flow cytometry)", "value": 80, "unit": "%"}
    ]}
  ]
}
